From publication PMC9303464

Experiments:
[1] = target: NepR2 (Sphingopyxis granuli TFA); assay: SPR
[2] = target: NepR1 (Sphingopyxis granuli TFA); assay: SPR

Kd [1]	Kd [2]	Substance
38.8 nM		EcfG1 (natural protein)
23.5 nM	14.2 nM	EcfG2 (natural protein)
